Data taken from paper PMC2140037 (The Journal of Cell Biology, 2007).

Tests used:
[1] = biological target: GST-Sed5H1 + 2 (yeast) (UniProt Q01590); assay: pull-down
[2] = biological target: GST-Sed5H1 (yeast) (UniProt Q01590); assay: pull-down
[3] = biological target: GST-Sed5H2 (yeast) (UniProt Q01590); assay: pull-down
[4] = biological target: rat Cog3p (rat (endogenous in rat liver Golgi membranes)); assay: co-IP
[5] = biological target: yeast COG complex (purified from TAP-yCog2 cells) (yeast, UniProt P53079;P53271;P40094;Q06096;P53951;P53959;P53195;Q04632); assay: pull-down

“yeast COG complex (purified from TAP-yCog2 cells), P53079;P53271;P40094;Q06096;P53951;P53959;P53195;Q04632” was tested. Which fold less efficient binding than to the cytosolic portion of Sed5p and Sed5H3 [1] did it give?
The fold less efficient binding than to the cytosolic portion of Sed5p and Sed5H3 was 4 fold.

What about the fold less efficient binding than to the cytosolic portion of Sed5p and Sed5H3 [2] of the same molecule?
Its fold less efficient binding than to the cytosolic portion of Sed5p and Sed5H3 is 4 fold.

What about the fold less efficient binding than to the cytosolic portion of Sed5p and Sed5H3 [3] of the same molecule?
The fold less efficient binding than to the cytosolic portion of Sed5p and Sed5H3 was 4 fold.

B1: vesicle-tethering factor p115 (rat liver Golgi) (natural protein)
chain: MNFLRGVMGGQSAGPQHTEAETIQKLCDRVASSTLLDDRRNAVRALKSLSKKYRLEVGIQAMEHLIHVLQTDRSDSEIIAYALDTLYNIISNDEEEEVEENSTRQSEDLGSQFTEIFIKQPENVTLLLSLLEEFDFHVRWPGVRLLTSLLKQLGPPVQQIILVSPMGVSKLMDLLADSREIIRNDGVLLLQALTRSNGAIQKIVAFENAFERLLDIITEEGNSDGGIVVEDCLILLQNLLKNNNSNQNFFKEGSYIQRMKAWFEVGDENPGWSAQKVTNLHLMLQLVRVLVSPTNPPGATSSCQKAMFQCGLLQQLCTILMATGIPADILTETINTVSEVIRGCQVNQDYFASVNAPSNPPRPAIVVLLMSMVNERQPFVLRCAVLYCFQCFLYKNEKGQGEIVATLLPSTIDATGNSVSAGQLLCGGLFSTDSLSNWCAAVALAHALQGNATQKEQLLRVQLATSIGNPPVSLLQQCTNILSQGSKIQTRVGLLMLLCTWLSNCPIAVTHFLHNSANVPFLTGQIAENLGEEEQLVQGLCALLLGISIYFNDNSLENYTKEKLKQLIEKRIGKENYIEKLGFISKHELYSRASQKPQPNFPSPEYMIFDHEFTKLVKELEGVITKAIYKSSEEDKKEEEVKKTLEQHDNIVTHYKNMIREQDLQLEELKQQVSTLKCQNEQLQTAVTQQASQIQQHKDQYNLLKVQLGKDNHHQGSHSDGAQVNGIQPEEISRLREEIEELRSHQVLLQSQLAEKDTVIENLRSSQVSGMSEQALATCSPRDAEQVAELKQELSALKSQLCSQSLEITRLQTENSELQQRAETLAKSVPVEGESELVTAAKTTDVEGRLSALLQETKELKNEIKALSEERTAIQKQLDSSNSTIAILQTEKDKLYLEVTDSKKEQDDLLVLLADQDQKILSLKSKLKDLGHPVEEEDESGDQEDDDDELDDGDRDQDI
With B1 as the molecule, how does the percent coimmunoprecipitated [4] read?
The percent coimmunoprecipitated was 4%.

B2: Golgi matrix protein GM130 (rat liver Golgi) (natural protein)
chain: MWPPRFPPPRPGMSEETRQSKLAAAKKKLREYQQKNSPGVPAGAKKKKKIKNGHSPERTSASDCQSAENVPTDHTAPAPPSTAAATMFLGVVPSPDADLIQSHDAGNCSNLMEETKTFSSTESLRQLSQQLNGLVSESTSYINGEGLTSSNMKELESRYQELAVALDSSYVTNKQLSSTIEELKQQNQDTLDQLEKEKKDYQQKLAKEQGALREQLQVHIQTIGILVSEKAELQTALAHTQQAARQKAGESEDLASRLQSSRQRVGELERTLSTVSTQQKQADRYNKDLTKERDALKLELYKNGKSNEDLRQQNSELEEKLRVLVAEKAAAQLGAEELQKKLEMSELLLQQFSSQSEASGSNEQLQQAMEERAQLESHVGQLMESLKQLQVERDQYAENLKGESAMWQQRVQQMAEQVHALKEEKEQRESQVQELEASLAELRSQMEEPPPPEPPTGPSEAEERLQGEVEQLQKELEGLTGQLRAQVQDNESLSHLNREQEGRLLELEREAQHWSEQAEERKQILESMQSDRTTISRALSQNRELKEQLAELQNGFVRLTNENMEITSALQSEQHVKKELARKLGELQERLGELKETVELKSQEAQGLQEQRDQCLSHLQQYAAAYQQHLTAYEQLTSEKEALHKQLLLQTQLMDQLQHEEVQGKMAAEMARQELQEAQERLKASSQENQQLQAQLSLLVLPGEDMDQEEQDEEVPQPSLTIPEDLVSREAMVAFCNAAIARAEEEQARLRVQLREQKARCRSLAHLAAPVQSKLEKEAVVPRDMGDSVSEESNQALHVAMEKLQNRFLEVMQEKVELKERVEELEHCCIQLSGETDTIGEYIALYQNQRAVLKARHLEKEEYISRLAQDKEEMKVKLLELQELVLRLVNERNEWQGKFLAVSQNPADVPAPVPTGSQEFGAADQQGDLREVSLADDTEPAQGEAGVPAPQENPTAQQIMQLLREIQNPQERPGLGSNPCIPFFYRADENDEVKIMVI
How did the percent coimmunoprecipitated [4] turn out when B2 was run?
Its percent coimmunoprecipitated is 10%.

B3: GST-Sed5p, cytosolic portion (domain or fragment)
chain: MNIKDRTSEFQQSVLSYKKRNKNFREQQRERLQEKESENFANNTTGNGKSVSEFQKKASGIAHEISSTAQLLSKLAVLAKRKPMFNDNPVEIAELSFLIKRKIYAIEQSLVQLSQLKKTDVNGNTSNQSSKQPSAVQHSKNVVNLLNTQMKNISGSFKDVLEERQRLEMANKDRWQKLTTDTGHAPADDQTQSNHAADLTTYNNSNPFMTSLLDESSEKNNNSSNQGELSFPQNDSQLMLMEEGQLSNNVYLQERNRAVETIESTIQEVGNLFQQLASMVQEQGEVIQRIDANVDDIDLNISGAQRELLKYFDRIKSNR
Does B3 bind [5]?
Result: binds

B4: GS28 (rat liver Golgi) (natural protein)
chain: MAAGTSNYWEDLRKQARQLENELDLKLVSFSKLCTSYSHSSARDGGRDRYSSDTTPLLNGSSQDRMFETMAIEIEQLLARLTGVNDKMAEYTHSAGVPSLNAALMHTLQRHRDILQDYTHEFHKTKANFMAIRERENLMGSVRKDIESYKSGSGVNNRRTELFLKEHDHLRNSDRLIEETISIAMATKENMTSQRGMLKSIHSKMNTLANRFPAVNSLIQRINLRKRRDSLILGGVIGICTILLLLYAFH
How did the percent coimmunoprecipitated [4] turn out when B4 was run?
The percent coimmunoprecipitated was less than 4%.

B5: Syntaxin5a (rat liver Golgi) (natural protein)
chain: MSCRDRTQEFLSACKSLQSRQNGIQTNKPALHATRQCSEFTLMARRIGKDLSNTFAKLEKLTILAKRKSLFDDKAVEIEELTYIIKQDINSLNKQIAQLQDFVRAKGSQSGRHLQTHSNTIVVSLQSKLASMSNDFKSVLEVRTENLKQQRNRREQFSRAPVSALPLAPNNLGGGPIVLGGESRASRDVAIDMMDPRTSQQLQLIDEQDSYIQSRADTMQNIESTIVELGSIFQQLAHMVKEQEETIQRIDENVLGAQLDVEAAHSEILKYFQSVTSNRWLMVKIFLILIVFFIIFVVFLA
How did the percent coimmunoprecipitated [4] turn out when B5 was run?
The percent coimmunoprecipitated was less than 4%.

B6: GST-Sed5H3 (SNARE domain of Sed5p) (domain or fragment)
chain: FMTSLLDESSEKNNNSSNQGELSFPQNDSQLMLMEEGQLSNNVYLQERNRAVETIESTIQEVGNLFQQLASMVQEQGEVIQRIDANVDDIDLNISGAQRELLKYFDRIKSNRWLAAK
Does B6 bind [5]?
Result: binds
